Source: the supplement of paper PMC9112550, “Optimization of the antimicrobial peptide Bac7 by deep mutational scanning” (BMC Biology, 2022)

Tested on: Escherichia coli TOP10
Test: shrunken log2 fold change of peptide-encoding DNA abundance (4.5 h post-induction vs induction); higher = less antimicrobial activity (less host growth inhibition)
Conditions: time post-induction: 4.5 h; library: site-saturation at positions 5, 18, 19, 20
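Also: peptides expressed intracellularly from a pBAD plasmid library in pooled LB shake-flask culture, induced with 0.3% L-arabinose, DNA abundance read by NGS, three biological replicates, DESeq2 with apeglm shrinkage.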

Row | Sequence | shrunken log2 fold change
1 | RRIRRRPPRLPRPRPRPYFTPRP | -0.432
2 | RRIRPRPPRLPRPRPRPDIEPRP | -0.215
3 | RRIRDRPPRLPRPRPRPAAVPRP | 0.609
4 | RRIRERPPRLPRPRPRPYCDPRP | -0.0156
5 | RRIRPRPPRLPRPRPRPPTKPRP | 0.268
6 | RRIRGRPPRLPRPRPRPAQQPRP | 0.57
7 | RRIRERPPRLPRPRPRPVEAPRP | 0.21
8 | RRIRMRPPRLPRPRPRPRLSPRP | 0.494
9 | RRIRERPPRLPRPRPRPLGSPRP | -0.0249
10 | RRIRHRPPRLPRPRPRPMVHPRP | 0.00748
11 | RRIRSRPPRLPRPRPRPYKLPRP | -0.399
12 | RRIRPRPPRLPRPRPRPWCHPRP | -0.563
13 | RRIRVRPPRLPRPRPRPPHSPRP | 0.108
14 | RRIRKRPPRLPRPRPRPILIPRP | 0.0193
15 | RRIRHRPPRLPRPRPRPGCFPRP | -0.181
16 | RRIRQRPPRLPRPRPRPVECPRP | 0.0104
17 | RRIRYRPPRLPRPRPRPYQVPRP | -0.289
18 | RRIRNRPPRLPRPRPRPRIHPRP | -0.184
19 | RRIRKRPPRLPRPRPRPFFFPRP | 0.779
20 | RRIRPRPPRLPRPRPRPTYAPRP | 0.133
21 | RRIRNRPPRLPRPRPRPSLHPRP | -0.621

Row | Sequence | shrunken log2 fold change
22 | RRIRLRPPRLPRPRPRPPHVPRP | 0.989
23 | RRIRHRPPRLPRPRPRPWRHPRP | -0.00865
24 | RRIRSRPPRLPRPRPRPGWVPRP | 0.549
25 | RRIRRRPPRLPRPRPRPKMPPRP | 0.191
26 | RRIRVRPPRLPRPRPRPGWAPRP | 0.228
27 | RRIRDRPPRLPRPRPRPIADPRP | 0.163
28 | RRIRYRPPRLPRPRPRPCKPPRP | -0.00151
29 | RRIRERPPRLPRPRPRPWPTPRP | 0.549
30 | RRIRGRPPRLPRPRPRPIHLPRP | -0.0773
31 | RRIRNRPPRLPRPRPRPFVYPRP | -0.0264
32 | RRIRKRPPRLPRPRPRPNDWPRP | 0.455
33 | RRIRGRPPRLPRPRPRPMQEPRP | 0.161
34 | RRIRWRPPRLPRPRPRPHKHPRP | -0.117
35 | RRIRLRPPRLPRPRPRPKINPRP | -0.396
36 | RRIRKRPPRLPRPRPRPPFDPRP | 0.586
37 | RRIRTRPPRLPRPRPRPRIYPRP | -0.304
38 | RRIRDRPPRLPRPRPRPIYSPRP | -0.15
39 | RRIRPRPPRLPRPRPRPENKPRP | -0.232
40 | RRIRERPPRLPRPRPRPIWLPRP | -0.0129
41 | RRIRDRPPRLPRPRPRPGRMPRP | 0.174
42 | RRIRLRPPRLPRPRPRPPWPPRP | 0.578

Row | Sequence | shrunken log2 fold change
43 | RRIRSRPPRLPRPRPRPIWCPRP | -0.288
44 | RRIRNRPPRLPRPRPRPKGEPRP | -0.00804
45 | RRIRTRPPRLPRPRPRPWVEPRP | -0.297
46 | RRIRLRPPRLPRPRPRPIKSPRP | -0.202
47 | RRIRGRPPRLPRPRPRPPECPRP | 0.483
48 | RRIRWRPPRLPRPRPRPMVGPRP | 0.171
49 | RRIRARPPRLPRPRPRPCYTPRP | -0.486
50 | RRIRMRPPRLPRPRPRPDPKPRP | -0.000946
51 | RRIRSRPPRLPRPRPRPSARPRP | 0.299
52 | RRIRYRPPRLPRPRPRPCVHPRP | -0.0274
53 | RRIRMRPPRLPRPRPRPADNPRP | 0.0259
54 | RRIRYRPPRLPRPRPRPVASPRP | -0.163
55 | RRIRSRPPRLPRPRPRPYQEPRP | -0.157
56 | RRIRCRPPRLPRPRPRPIDNPRP | -0.755
57 | RRIRYRPPRLPRPRPRPTSGPRP | 0.0452
58 | RRIRMRPPRLPRPRPRPAIQPRP | -0.00069
59 | RRIRCRPPRLPRPRPRPHGHPRP | -0.167
60 | RRIRPRPPRLPRPRPRPWVNPRP | -0.11
61 | RRIRFRPPRLPRPRPRPNKIPRP | -0.538
62 | RRIRGRPPRLPRPRPRPGKFPRP | 0.427
63 | RRIRPRPPRLPRPRPRPCEKPRP | 0.0377
